Laboratory results reported in patent US20210032299A1.
Starred links: 1 amine or outer side, 2 acyl side, 3 side chain; linkers in the order of their positions; H or OH if unused. Non-standard residues stand in square brackets, D forms with d. Groups on a side chain read outwards from the residue. No end group written: not given here. *: point of attachment. C20 diacid = O=C(O)CCCCCCCCCCCCCCCCCCC(=O)*; C18 diacid = O=C(O)CCCCCCCCCCCCCCCCC(=O)*; αMePhe(2-F) = C[C@](N)(Cc1ccccc1F)C(=O)O; γGlu = O=C(O)[C@H](CCC(=O)[*:2])N[*:1]; 4Pal = N[C@@H](Cc1ccncc1)C(=O)O; αMeL = CC(C)C[C@](C)(N)C(=O)O; Orn = NCCC[C@H](N)C(=O)O; AEEA = NCCOCCOCC(=O)O; Aib = CC(C)(N)C(=O)O

Legend:
[1] = target: T1, human glucose-dependent insulinotropic polypeptide (GIP) receptor (human), P48546; test: SPA, displacement of [125I]-GIP from hGIPR membranes, 0.1% bacitracin
T1 chain: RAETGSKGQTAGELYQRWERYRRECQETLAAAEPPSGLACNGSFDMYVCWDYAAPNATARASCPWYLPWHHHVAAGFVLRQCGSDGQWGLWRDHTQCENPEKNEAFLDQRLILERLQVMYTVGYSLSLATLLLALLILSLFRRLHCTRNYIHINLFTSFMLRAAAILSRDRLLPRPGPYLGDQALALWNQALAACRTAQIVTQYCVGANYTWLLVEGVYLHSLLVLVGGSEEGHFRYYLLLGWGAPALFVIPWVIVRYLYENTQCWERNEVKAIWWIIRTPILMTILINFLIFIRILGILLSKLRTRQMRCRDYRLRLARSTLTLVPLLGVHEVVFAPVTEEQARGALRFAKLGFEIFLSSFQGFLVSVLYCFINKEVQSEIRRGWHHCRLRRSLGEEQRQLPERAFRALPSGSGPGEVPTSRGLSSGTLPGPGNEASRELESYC

[2] = target: human glucagon receptor (human), P47871; test: SPA, displacement of [125I]-Gcg from hGcgR membranes, 0.1% bacitracin
human glucagon receptor (human), P47871, sequence (P47871 26-477): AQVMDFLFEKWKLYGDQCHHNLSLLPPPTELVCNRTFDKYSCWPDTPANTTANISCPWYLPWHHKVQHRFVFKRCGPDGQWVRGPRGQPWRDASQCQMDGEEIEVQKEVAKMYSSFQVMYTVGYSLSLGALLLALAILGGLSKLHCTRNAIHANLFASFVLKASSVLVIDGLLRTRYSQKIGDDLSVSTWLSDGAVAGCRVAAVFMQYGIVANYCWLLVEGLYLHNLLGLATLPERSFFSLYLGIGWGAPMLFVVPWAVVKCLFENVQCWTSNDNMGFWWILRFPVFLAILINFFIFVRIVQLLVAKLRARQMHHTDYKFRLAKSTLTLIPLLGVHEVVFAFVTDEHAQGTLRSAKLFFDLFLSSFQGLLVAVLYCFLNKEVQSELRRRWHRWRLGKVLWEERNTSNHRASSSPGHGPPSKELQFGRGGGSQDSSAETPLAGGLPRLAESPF

[3] = target: T2, human GLP-1 receptor (human), P43220; test: SPA, displacement of [125I]-GLP-1 from hGLP-1R membranes, 0.1% bacitracin
T2 chain: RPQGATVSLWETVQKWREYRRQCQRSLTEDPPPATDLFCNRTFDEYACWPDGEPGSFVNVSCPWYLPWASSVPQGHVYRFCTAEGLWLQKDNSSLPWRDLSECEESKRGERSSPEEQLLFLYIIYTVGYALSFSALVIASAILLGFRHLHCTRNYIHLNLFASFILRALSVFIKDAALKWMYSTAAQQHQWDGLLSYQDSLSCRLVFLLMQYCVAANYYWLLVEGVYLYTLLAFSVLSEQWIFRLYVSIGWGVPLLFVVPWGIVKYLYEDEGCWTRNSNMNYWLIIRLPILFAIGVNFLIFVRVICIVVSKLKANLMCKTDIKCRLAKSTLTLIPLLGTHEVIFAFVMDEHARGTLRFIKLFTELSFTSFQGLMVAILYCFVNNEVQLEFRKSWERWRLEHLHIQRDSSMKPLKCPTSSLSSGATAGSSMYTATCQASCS

B1: Example 115 (peptide)
peptide: Y[Aib]EGTFISDYSI[αMeL]LDKIRQ[Aib]DFVEYK([AEEA-AEEA-γGlu-C20 diacid])LEGGPSSGAPPPS-NH2
modifications: N-terminus assumed
SMILES: CC[C@H](C)[C@H](NC(=O)[C@H](CCCCN)NC(=O)[C@H](CC(=O)O)NC(=O)[C@H](CC(C)C)NC(=O)[C@](C)(CC(C)C)NC(=O)[C@@H](NC(=O)[C@H](CO)NC(=O)[C@H](Cc1ccc(O)cc1)NC(=O)[C@H](CC(=O)O)NC(=O)[C@H](CO)NC(=O)[C@@H](NC(=O)[C@H](Cc1ccccc1)NC(=O)[C@@H](NC(=O)CNC(=O)[C@H](CCC(=O)O)NC(=O)C(C)(C)NC(=O)[C@@H](N)Cc1ccc(O)cc1)[C@@H](C)O)[C@@H](C)CC)[C@@H](C)CC)C(=O)N[C@@H](CCCNC(=N)N)C(=O)N[C@@H](CCC(N)=O)C(=O)NC(C)(C)C(=O)N[C@@H](CC(=O)O)C(=O)N[C@@H](Cc1ccccc1)C(=O)N[C@H](C(=O)N[C@@H](CCC(=O)O)C(=O)N[C@@H](Cc1ccc(O)cc1)C(=O)N[C@@H](CCCCNC(=O)COCCOCCNC(=O)COCCOCCNC(=O)CC[C@H](NC(=O)CCCCCCCCCCCCCCCCCCC(=O)O)C(=O)O)C(=O)N[C@@H](CC(C)C)C(=O)N[C@@H](CCC(=O)O)C(=O)NCC(=O)NCC(=O)N1CCC[C@H]1C(=O)N[C@@H](CO)C(=O)N[C@@H](CO)C(=O)NCC(=O)N[C@@H](C)C(=O)N1CCC[C@H]1C(=O)N1CCC[C@H]1C(=O)N1CCC[C@H]1C(=O)N[C@@H](CO)C(N)=O)C(C)C
B1 was tested, and the Ki [1] was 0.0997 nM and the Ki [2] was 373 nM.

B2: Example 4 (peptide)
peptide: Y[Aib]EGTFISDYSI[αMeL]LD[Orn]K([AEEA-AEEA-γGlu-C20 diacid])HQ[Aib]DFVE[4Pal]LLEAGPSSGAPPPS-NH2
modifications: N-terminus assumed
SMILES: CC[C@H](C)[C@H](NC(=O)[C@H](Cc1ccccc1)NC(=O)[C@@H](NC(=O)CNC(=O)[C@H](CCC(=O)O)NC(=O)C(C)(C)NC(=O)[C@@H](N)Cc1ccc(O)cc1)[C@@H](C)O)C(=O)N[C@@H](CO)C(=O)N[C@@H](CC(=O)O)C(=O)N[C@@H](Cc1ccc(O)cc1)C(=O)N[C@@H](CO)C(=O)N[C@H](C(=O)N[C@@](C)(CC(C)C)C(=O)N[C@@H](CC(C)C)C(=O)N[C@@H](CC(=O)O)C(=O)N[C@@H](CCCN)C(=O)N[C@@H](CCCCNC(=O)COCCOCCNC(=O)COCCOCCNC(=O)CC[C@H](NC(=O)CCCCCCCCCCCCCCCCCCC(=O)O)C(=O)O)C(=O)N[C@@H](Cc1c[nH]cn1)C(=O)N[C@@H](CCC(N)=O)C(=O)NC(C)(C)C(=O)N[C@@H](CC(=O)O)C(=O)N[C@@H](Cc1ccccc1)C(=O)N[C@H](C(=O)N[C@@H](CCC(=O)O)C(=O)N[C@@H](Cc1ccncc1)C(=O)N[C@@H](CC(C)C)C(=O)N[C@@H](CC(C)C)C(=O)N[C@@H](CCC(=O)O)C(=O)N[C@@H](C)C(=O)NCC(=O)N1CCC[C@H]1C(=O)N[C@@H](CO)C(=O)N[C@@H](CO)C(=O)NCC(=O)N[C@@H](C)C(=O)N1CCC[C@H]1C(=O)N1CCC[C@H]1C(=O)N1CCC[C@H]1C(=O)N[C@@H](CO)C(N)=O)C(C)C)[C@@H](C)CC
B2 gave a Ki [1] of 0.062 nM, a Ki [2] of 431 nM and a Ki [3] of 423 nM.

B3: Example 6 (peptide)
peptide: Y[Aib]EGTFISDYSI[αMeL]LD[Orn]IHQ[Aib]DFVEYK([AEEA-AEEA-γGlu-C20 diacid])LEGGPSSGAPPPS-NH2
In the case of B3, the Ki [1] is reported as 0.104 nM, the Ki [2] is reported as 453 nM and the Ki [3] is reported as 571 nM.

B4: Example 120 (peptide)
peptide: Y[Aib]EGT[αMePhe(2-F)]ISDYSILLDKIHQ[Aib]DFVE[4Pal]K([AEEA-AEEA-γGlu-C20 diacid])LEAGPSSGAPPPS-NH2
modifications: N-terminus assumed
SMILES: CC[C@H](C)[C@H](NC(=O)[C@H](CO)NC(=O)[C@H](Cc1ccc(O)cc1)NC(=O)[C@H](CC(=O)O)NC(=O)[C@H](CO)NC(=O)[C@@H](NC(=O)[C@](C)(Cc1ccccc1F)NC(=O)[C@@H](NC(=O)CNC(=O)[C@H](CCC(=O)O)NC(=O)C(C)(C)NC(=O)[C@@H](N)Cc1ccc(O)cc1)[C@@H](C)O)[C@@H](C)CC)C(=O)N[C@@H](CC(C)C)C(=O)N[C@@H](CC(C)C)C(=O)N[C@@H](CC(=O)O)C(=O)N[C@@H](CCCCN)C(=O)N[C@H](C(=O)N[C@@H](Cc1c[nH]cn1)C(=O)N[C@@H](CCC(N)=O)C(=O)NC(C)(C)C(=O)N[C@@H](CC(=O)O)C(=O)N[C@@H](Cc1ccccc1)C(=O)N[C@H](C(=O)N[C@@H](CCC(=O)O)C(=O)N[C@@H](Cc1ccncc1)C(=O)N[C@@H](CCCCNC(=O)COCCOCCNC(=O)COCCOCCNC(=O)CC[C@H](NC(=O)CCCCCCCCCCCCCCCCCCC(=O)O)C(=O)O)C(=O)N[C@@H](CC(C)C)C(=O)N[C@@H](CCC(=O)O)C(=O)N[C@@H](C)C(=O)NCC(=O)N1CCC[C@H]1C(=O)N[C@@H](CO)C(=O)N[C@@H](CO)C(=O)NCC(=O)N[C@@H](C)C(=O)N1CCC[C@H]1C(=O)N1CCC[C@H]1C(=O)N1CCC[C@H]1C(=O)N[C@@H](CO)C(N)=O)C(C)C)[C@@H](C)CC
B4 was tested, and the Ki [1] was 0.171 nM and the Ki [2] was 575 nM.

B5: Example 116 (peptide)
peptide: Y[Aib]EGTFISDYSI[αMeL]LD[Orn]IRQ[Aib]DFVEYK([AEEA-AEEA-γGlu-C20 diacid])LEGGPSSGAPPPS-NH2
modifications: N-terminus assumed
SMILES: CC[C@H](C)[C@H](NC(=O)[C@H](CCCN)NC(=O)[C@H](CC(=O)O)NC(=O)[C@H](CC(C)C)NC(=O)[C@](C)(CC(C)C)NC(=O)[C@@H](NC(=O)[C@H](CO)NC(=O)[C@H](Cc1ccc(O)cc1)NC(=O)[C@H](CC(=O)O)NC(=O)[C@H](CO)NC(=O)[C@@H](NC(=O)[C@H](Cc1ccccc1)NC(=O)[C@@H](NC(=O)CNC(=O)[C@H](CCC(=O)O)NC(=O)C(C)(C)NC(=O)[C@@H](N)Cc1ccc(O)cc1)[C@@H](C)O)[C@@H](C)CC)[C@@H](C)CC)C(=O)N[C@@H](CCCNC(=N)N)C(=O)N[C@@H](CCC(N)=O)C(=O)NC(C)(C)C(=O)N[C@@H](CC(=O)O)C(=O)N[C@@H](Cc1ccccc1)C(=O)N[C@H](C(=O)N[C@@H](CCC(=O)O)C(=O)N[C@@H](Cc1ccc(O)cc1)C(=O)N[C@@H](CCCCNC(=O)COCCOCCNC(=O)COCCOCCNC(=O)CC[C@H](NC(=O)CCCCCCCCCCCCCCCCCCC(=O)O)C(=O)O)C(=O)N[C@@H](CC(C)C)C(=O)N[C@@H](CCC(=O)O)C(=O)NCC(=O)NCC(=O)N1CCC[C@H]1C(=O)N[C@@H](CO)C(=O)N[C@@H](CO)C(=O)NCC(=O)N[C@@H](C)C(=O)N1CCC[C@H]1C(=O)N1CCC[C@H]1C(=O)N1CCC[C@H]1C(=O)N[C@@H](CO)C(N)=O)C(C)C
B5 showed a Ki [1] of 0.166 nM and a Ki [2] of 178 nM.

B6: Example 87 (peptide)
peptide: Y[Aib]EGTFISDYSI[αMeL]LD[Orn]K([AEEA-AEEA-γGlu-C18 diacid])HQ[Aib]DFVE[4Pal]LLEAGPSSGAPPPS-NH2
modifications: N-terminus assumed
SMILES: CC[C@H](C)[C@H](NC(=O)[C@H](Cc1ccccc1)NC(=O)[C@@H](NC(=O)CNC(=O)[C@H](CCC(=O)O)NC(=O)C(C)(C)NC(=O)[C@@H](N)Cc1ccc(O)cc1)[C@@H](C)O)C(=O)N[C@@H](CO)C(=O)N[C@@H](CC(=O)O)C(=O)N[C@@H](Cc1ccc(O)cc1)C(=O)N[C@@H](CO)C(=O)N[C@H](C(=O)N[C@@](C)(CC(C)C)C(=O)N[C@@H](CC(C)C)C(=O)N[C@@H](CC(=O)O)C(=O)N[C@@H](CCCN)C(=O)N[C@@H](CCCCNC(=O)COCCOCCNC(=O)COCCOCCNC(=O)CC[C@H](NC(=O)CCCCCCCCCCCCCCCCC(=O)O)C(=O)O)C(=O)N[C@@H](Cc1c[nH]cn1)C(=O)N[C@@H](CCC(N)=O)C(=O)NC(C)(C)C(=O)N[C@@H](CC(=O)O)C(=O)N[C@@H](Cc1ccccc1)C(=O)N[C@H](C(=O)N[C@@H](CCC(=O)O)C(=O)N[C@@H](Cc1ccncc1)C(=O)N[C@@H](CC(C)C)C(=O)N[C@@H](CC(C)C)C(=O)N[C@@H](CCC(=O)O)C(=O)N[C@@H](C)C(=O)NCC(=O)N1CCC[C@H]1C(=O)N[C@@H](CO)C(=O)N[C@@H](CO)C(=O)NCC(=O)N[C@@H](C)C(=O)N1CCC[C@H]1C(=O)N1CCC[C@H]1C(=O)N1CCC[C@H]1C(=O)N[C@@H](CO)C(N)=O)C(C)C)[C@@H](C)CC
In the case of B6, the Ki [1] is reported as 0.0538 nM, the Ki [2] is reported as 576 nM and the Ki [3] is reported as 849 nM.
